This passage reports protein stability index results from the supplement of paper PMC10567573.

First the molecules themselves.
B1: KLHL14 (parent)
chain: WLYCYDPVMDVWARKQDMNTKRAI
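Note: lentivirally expressed fusions sorted by FACS into six bins by GFP to DsRed ratio, PSI derived from sequencing read proportions per bin multiplied by bin number.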

Variants of B1 are the subject of this data set. In words: protein stability index of a GFP-peptide fusion (GPS, HEK-293T) (PSI 1-6); higher = more stable. The following applies: c terminus: a fixed tail appended.
For WLYCYDPVMDVWGRKQDMNTKRAI [A13G], the protein stability index amounted to 1.97. With WLYCYDPVMDVWYRKQDMNTKRAI [A13Y], the protein stability index was found to be 1.87. WLYCYDPVMDVWMRKQDMNTKRAI [A13M]: the protein stability index came to 1.96. Next, WLYCYDPVMDVWNRKQDMNTKRAI [A13N]: 2.46; WLYCYDPVMDVWSRKQDMNTKRAI [A13S]: 2. With WLYCYDPVMDVWWRKQDMNTKRAI [A13W], the protein stability index was determined as 2.44. As for WLYCYDPVMDVWERKQDMNTKRAI [A13E], the protein stability index stood at 2.36.

For WLYCYDPVMDVWIRKQDMNTKRAI [A13I], the protein stability index was 2.18. On to WLYCYDPVMDVWDRKQDMNTKRAI [A13D], for which the protein stability index came out at 2.84.

For WLYCYDPVMDVWARKQDMNIKRAI [T20I], the protein stability index is 1.91. Next, WLYCYDPVMDVWARKQDMNSKRAI [T20S]: 1.99. As to WLYCYDPVMDVWARKQDMNPKRAI [T20P], the protein stability index is 2. As for WLYCYDPVMDVWARKQDMNAKRAI [T20A], the protein stability index is 2.07. Next, WLYCYDPVMDVWARKQDMNNKRAI [T20N]: 1.85; WLYCYDPVMDVWARKQDMNWKRAI [T20W]: 2.34. As to WLYCYDPVMDVWARKQDMNLKRAI [T20L], the protein stability index was 2.28. Next, WLYCYDPVMDVWARKQDMNTKRAN [I24N]: 2.29; WLYCYDPVMDVWARKQDMNTKRAS [I24S]: 2.86; WLYCYDPVMDVWARKQDMNTKRAY [I24Y]: 2.45. In the case of WLYCYDPVMDVWARKQDMNTKRAA [I24A], the protein stability index was 2.36. For the variant WLYCYDPVMDVWARKQDMNTKRAL [I24L], the protein stability index is 2.25. WLYCYDPVMDVWARKQDMNTKRAK [I24K]: the protein stability index came out at 2.44. Next, WLYCYDPVMDVWARKQDMNTKRAW [I24W]: 2.39; WLYCYDPVMDVWARKQDMNTKRAQ [I24Q]: 2.79; WLYCYDPVMDVWARKQDMNTKRAM [I24M]: 2.16. For WLYCYDPVMDVWARKQDMNTKRAF [I24F], the protein stability index came out at 1.42. The same measure for PLYCYDPVMDVWARKQDMNTKRAI [W1P]: 2.88; for HLYCYDPVMDVWARKQDMNTKRAI [W1H]: 3.4; for CLYCYDPVMDVWARKQDMNTKRAI [W1C]: 2.27.

As for MLYCYDPVMDVWARKQDMNTKRAI [W1M], the protein stability index worked out at 2.62. Next, DLYCYDPVMDVWARKQDMNTKRAI [W1D]: 4.41; WLYCYDPVMNVWARKQDMNTKRAI [D10N]: 2.1; WLYCYDPVMGVWARKQDMNTKRAI [D10G]: 2.77.

In the case of WLYCYDPVMQVWARKQDMNTKRAI [D10Q], the protein stability index was 2.74. Consider WLYCYDPVMFVWARKQDMNTKRAI [D10F], for which the protein stability index is 1.54. The same measure for WLYCYDPVMLVWARKQDMNTKRAI [D10L]: 2.82; for WLYCYDPVMSVWARKQDMNTKRAI [D10S]: 1.99; for WLYCYDPVMIVWARKQDMNTKRAI [D10I]: 1.8.

Take WLYCYDPVMHVWARKQDMNTKRAI [D10H]: the protein stability index was found to be 2.11. Next, WLYCYDPVMDVWARSQDMNTKRAI [K15S]: 1.79. Next, WLYCYDPVMDVWARFQDMNTKRAI [K15F]: 1.76. Consider WLYCYDPVMDVWARNQDMNTKRAI [K15N], for which the protein stability index worked out at 2.03.

As for WLYCYDPVMDVWARWQDMNTKRAI [K15W], the protein stability index is 1.48. The same measure for WLYCYDPVMDVWARAQDMNTKRAI [K15A]: 1.68.

As to WLYCYDPVMDVWARPQDMNTKRAI [K15P], the protein stability index is 1.64. The same measure for WLYCYDPVMDVWARRQDMNTKRAI [K15R]: 2.14. Next, WLYCYDPVMDVWARHQDMNTKRAI [K15H]: 1.94; WLYCYDPVMDVWARKQYMNTKRAI [D17Y]: 1.67. Next, WLYCYDPVMDVWARKQAMNTKRAI [D17A]: 2.33. WLYCYDPVMDVWARKQNMNTKRAI [D17N]: the protein stability index came out at 1.91. Next, WLYCYDPVMDVWARKQSMNTKRAI [D17S]: 2.38; WLYCYDPVMDVWARKQMMNTKRAI [D17M]: 2.2; WLYCYDPVMDVWARKQIMNTKRAI [D17I]: 1.94. As to WLYCYDPVMDVWARKQVMNTKRAI [D17V], the protein stability index turned out to be 2.06. For the variant WLYCYDPVMDVWARKQQMNTKRAI [D17Q], the protein stability index was 2.06. The same measure for WLYCYDPVMDGWARKQDMNTKRAI [V11G]: 1.62; for WLYCYDPVMDDWARKQDMNTKRAI [V11D]: 1.98; for WLYCYDPVMDHWARKQDMNTKRAI [V11H]: 1.61. Consider WLYCYDPVMDNWARKQDMNTKRAI [V11N], for which the protein stability index is 2.21. Next, WLYCYDPVMDWWARKQDMNTKRAI [V11W]: 1.76; WLYCYDTVMDVWARKQDMNTKRAI [P7T]: 1.64; WLYCYDGVMDVWARKQDMNTKRAI [P7G]: 1.94. Next, WLYCYDNVMDVWARKQDMNTKRAI [P7N]: 1.84; WLYCYDMVMDVWARKQDMNTKRAI [P7M]: 1.98; WLYCYDPVYDVWARKQDMNTKRAI [M9Y]: 2.01. The same measure for WLYCYDPVVDVWARKQDMNTKRAI [M9V]: 1.65. Regarding WLYCYDPVHDVWARKQDMNTKRAI [M9H], the protein stability index was determined as 2.24. Next, WLYCYDPVCDVWARKQDMNTKRAI [M9C]: 2.35; WLYCYDPVADVWARKQDMNTKRAI [M9A]: 2.62. Next, WLYCYDPVSDVWARKQDMNTKRAI [M9S]: 2.26.

Take WLYCYDPVQDVWARKQDMNTKRAI [M9Q]: the protein stability index is 2.6. With WLYCYDPVIDVWARKQDMNTKRAI [M9I], the protein stability index came out at 1.9. The same measure for WLYCYDPVMDVWARKQDMMTKRAI [N19M]: 2.13. For WLYCYDPVMDVWARKQDMTTKRAI [N19T], the protein stability index was determined as 1.88.

WLYCYDPVMDVWARKQDMQTKRAI [N19Q]: the protein stability index was found to be 2.2. The same measure for WLYCYDPVMDVWARKQDMDTKRAI [N19D]: 2.27; for WLYCYDPVMDVWARKQDMATKRAI [N19A]: 1.59.

As to WLYCYDPVMDVWARKQDMLTKRAI [N19L], the protein stability index was 2.05. Next, WLYCYDPVMDVWARKQDMNTKAAI [R22A]: 2.32; WLYCYDPVMDVWARKQDMNTKNAI [R22N]: 1.82.

WLYCYDPVMDVWARKQDMNTKTAI [R22T]: the protein stability index was 1.91. The same measure for WLYCYDPVMDVWARKQDMNTKKAI [R22K]: 2; for WLYCYDPVMDVWARKQDMNTKPAI [R22P]: 1.8. Next, WLYCYDPVMDVWAAKQDMNTKRAI [R14A]: 1.85; WLYCYDPVMDVWAVKQDMNTKRAI [R14V]: 2.62; WLYCYDPVMDVWAEKQDMNTKRAI [R14E]: 2.13. WLYCYDPVMDVWAIKQDMNTKRAI [R14I]: the protein stability index is 1.84. For WLYCYDPVMDVWAKKQDMNTKRAI [R14K], the protein stability index was 1.9.

Consider WLYCYDPVMDVFARKQDMNTKRAI [W12F], for which the protein stability index was 1.86. WLYCYDPVMDVLARKQDMNTKRAI [W12L]: the protein stability index is 2.07. As to WLYCYDPVMDVQARKQDMNTKRAI [W12Q], the protein stability index is 1.92. Next, WLYCYDPVMDVVARKQDMNTKRAI [W12V]: 1.95; WLYCYDPVMDVTARKQDMNTKRAI [W12T]: 2.11; WLYCYDPVMDVHARKQDMNTKRAI [W12H]: 2.04.
